From paper PMC5656587, “Structure determination and activity manipulation of the turfgrass ABA receptor FePYR1” (Scientific Reports, 2017)

T1: biotin-MBP-tagged AtHAB1 (residues 172-511), Q9CAJ0
T1 chain: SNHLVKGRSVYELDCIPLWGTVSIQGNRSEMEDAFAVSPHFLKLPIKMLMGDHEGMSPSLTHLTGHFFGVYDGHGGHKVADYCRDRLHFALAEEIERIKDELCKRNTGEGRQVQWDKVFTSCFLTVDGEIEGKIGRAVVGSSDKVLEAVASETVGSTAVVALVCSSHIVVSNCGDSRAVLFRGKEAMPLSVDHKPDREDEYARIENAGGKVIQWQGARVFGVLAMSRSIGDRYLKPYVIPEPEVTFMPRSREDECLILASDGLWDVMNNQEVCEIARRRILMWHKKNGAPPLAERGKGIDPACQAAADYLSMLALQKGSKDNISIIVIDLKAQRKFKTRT


Molecular target: T1, biotin-MBP-tagged AtHAB1 (residues …)
Experiment: AlphaScreen
Conditions: chain shown with the change, read off a plot
[1] = ABA (10 μM), parent: est. 12000
[2] = ABA (100 μM), parent: est. 8400
[3] = DMSO (no ABA), parent: est. 2200

Row | Binder | response (photon counts) (ABA (2 μM), parent: est. 6900) | response (photon counts) [1] | response (photon counts) [2] | response (photon counts) (ABA (5 μM), parent: est. 17000) | response (photon counts) [3]
1 | H6-SUMO-tagged FePYR1 E131A (protein) MEQQPAAAEPEVPAGLGLTAAEYAELQPTVEAYHRYAVGPGQCSSLVAQRIEAPAAAVWAIVRRFDCPQVYKHFIRSCALRPDPDAGDELRPGRLREVSVISGLPASTSTERLDLLDDARRAFGFTITGGAHRLANYRSVTTVSELAPAAPAKICTVVLESYVVDVPEGNSEEDTRLFADTVVRLNLQKLKSLAEANATSAAAQATPPPQAE | 4100 | 8000 | 7500 | – | –
2 | H6-SUMO-tagged FePYR1 K72A (protein) MEQQPAAAEPEVPAGLGLTAAEYAELQPTVEAYHRYAVGPGQCSSLVAQRIEAPAAAVWAIVRRFDCPQVYAHFIRSCALRPDPDAGDELRPGRLREVSVISGLPASTSTERLDLLDDARRAFGFTITGGEHRLANYRSVTTVSELAPAAPAKICTVVLESYVVDVPEGNSEEDTRLFADTVVRLNLQKLKSLAEANATSAAAQATPPPQAE | – | – | 1200 | – | –
3 | H6-SUMO-tagged FePYR1 E160A (protein) MEQQPAAAEPEVPAGLGLTAAEYAELQPTVEAYHRYAVGPGQCSSLVAQRIEAPAAAVWAIVRRFDCPQVYKHFIRSCALRPDPDAGDELRPGRLREVSVISGLPASTSTERLDLLDDARRAFGFTITGGEHRLANYRSVTTVSELAPAAPAKICTVVLASYVVDVPEGNSEEDTRLFADTVVRLNLQKLKSLAEANATSAAAQATPPPQAE | 2600 | 4900 | 9000 | – | –
4 | H6-SUMO-tagged FePYR1 P105A (protein) MEQQPAAAEPEVPAGLGLTAAEYAELQPTVEAYHRYAVGPGQCSSLVAQRIEAPAAAVWAIVRRFDCPQVYKHFIRSCALRPDPDAGDELRPGRLREVSVISGLAASTSTERLDLLDDARRAFGFTITGGEHRLANYRSVTTVSELAPAAPAKICTVVLESYVVDVPEGNSEEDTRLFADTVVRLNLQKLKSLAEANATSAAAQATPPPQAE | 1400 | 3300 | 5700 | – | –
5 | H6-SUMO-tagged FePYR1 K72R (protein) MEQQPAAAEPEVPAGLGLTAAEYAELQPTVEAYHRYAVGPGQCSSLVAQRIEAPAAAVWAIVRRFDCPQVYRHFIRSCALRPDPDAGDELRPGRLREVSVISGLPASTSTERLDLLDDARRAFGFTITGGEHRLANYRSVTTVSELAPAAPAKICTVVLESYVVDVPEGNSEEDTRLFADTVVRLNLQKLKSLAEANATSAAAQATPPPQAE | – | – | 1300 | – | –
6 | H6-SUMO-tagged FePYR1 N186A (protein) MEQQPAAAEPEVPAGLGLTAAEYAELQPTVEAYHRYAVGPGQCSSLVAQRIEAPAAAVWAIVRRFDCPQVYKHFIRSCALRPDPDAGDELRPGRLREVSVISGLPASTSTERLDLLDDARRAFGFTITGGEHRLANYRSVTTVSELAPAAPAKICTVVLESYVVDVPEGNSEEDTRLFADTVVRLALQKLKSLAEANATSAAAQATPPPQAE | 1200 | 3900 | 5800 | – | –
7 | H6-SUMO-tagged FePYR1 R133A (protein) MEQQPAAAEPEVPAGLGLTAAEYAELQPTVEAYHRYAVGPGQCSSLVAQRIEAPAAAVWAIVRRFDCPQVYKHFIRSCALRPDPDAGDELRPGRLREVSVISGLPASTSTERLDLLDDARRAFGFTITGGEHALANYRSVTTVSELAPAAPAKICTVVLESYVVDVPEGNSEEDTRLFADTVVRLNLQKLKSLAEANATSAAAQATPPPQAE | 600 | 2300 | 3900 | – | –
8 | H6-SUMO-tagged FePYR1 L185A (protein) MEQQPAAAEPEVPAGLGLTAAEYAELQPTVEAYHRYAVGPGQCSSLVAQRIEAPAAAVWAIVRRFDCPQVYKHFIRSCALRPDPDAGDELRPGRLREVSVISGLPASTSTERLDLLDDARRAFGFTITGGEHRLANYRSVTTVSELAPAAPAKICTVVLESYVVDVPEGNSEEDTRLFADTVVRANLQKLKSLAEANATSAAAQATPPPQAE | – | – | – | 18000 | 2300
9 | H6-SUMO-tagged FePYR1 H132A (protein) MEQQPAAAEPEVPAGLGLTAAEYAELQPTVEAYHRYAVGPGQCSSLVAQRIEAPAAAVWAIVRRFDCPQVYKHFIRSCALRPDPDAGDELRPGRLREVSVISGLPASTSTERLDLLDDARRAFGFTITGGEARLANYRSVTTVSELAPAAPAKICTVVLESYVVDVPEGNSEEDTRLFADTVVRLNLQKLKSLAEANATSAAAQATPPPQAE | – | – | 650 | – | –
10 | H6-SUMO-tagged FePYR1 I127V (protein) MEQQPAAAEPEVPAGLGLTAAEYAELQPTVEAYHRYAVGPGQCSSLVAQRIEAPAAAVWAIVRRFDCPQVYKHFIRSCALRPDPDAGDELRPGRLREVSVISGLPASTSTERLDLLDDARRAFGFTVTGGEHRLANYRSVTTVSELAPAAPAKICTVVLESYVVDVPEGNSEEDTRLFADTVVRLNLQKLKSLAEANATSAAAQATPPPQAE | – | – | – | 17000 | 2200
11 | H6-SUMO-tagged FePYR1 H73P (protein) MEQQPAAAEPEVPAGLGLTAAEYAELQPTVEAYHRYAVGPGQCSSLVAQRIEAPAAAVWAIVRRFDCPQVYKPFIRSCALRPDPDAGDELRPGRLREVSVISGLPASTSTERLDLLDDARRAFGFTITGGEHRLANYRSVTTVSELAPAAPAKICTVVLESYVVDVPEGNSEEDTRLFADTVVRLNLQKLKSLAEANATSAAAQATPPPQAE | – | – | – | 15000 | 2000
12 | H6-SUMO-tagged FePYR1 E131D (protein) MEQQPAAAEPEVPAGLGLTAAEYAELQPTVEAYHRYAVGPGQCSSLVAQRIEAPAAAVWAIVRRFDCPQVYKHFIRSCALRPDPDAGDELRPGRLREVSVISGLPASTSTERLDLLDDARRAFGFTITGGDHRLANYRSVTTVSELAPAAPAKICTVVLESYVVDVPEGNSEEDTRLFADTVVRLNLQKLKSLAEANATSAAAQATPPPQAE | – | – | – | 18000 | 1900
13 | H6-SUMO-tagged FePYR1 I75V (protein) MEQQPAAAEPEVPAGLGLTAAEYAELQPTVEAYHRYAVGPGQCSSLVAQRIEAPAAAVWAIVRRFDCPQVYKHFVRSCALRPDPDAGDELRPGRLREVSVISGLPASTSTERLDLLDDARRAFGFTITGGEHRLANYRSVTTVSELAPAAPAKICTVVLESYVVDVPEGNSEEDTRLFADTVVRLNLQKLKSLAEANATSAAAQATPPPQAE | – | – | – | 16000 | 2100
14 | H6-SUMO-tagged FePYR1 A106S (protein) MEQQPAAAEPEVPAGLGLTAAEYAELQPTVEAYHRYAVGPGQCSSLVAQRIEAPAAAVWAIVRRFDCPQVYKHFIRSCALRPDPDAGDELRPGRLREVSVISGLPSSTSTERLDLLDDARRAFGFTITGGEHRLANYRSVTTVSELAPAAPAKICTVVLESYVVDVPEGNSEEDTRLFADTVVRLNLQKLKSLAEANATSAAAQATPPPQAE | – | – | 2100 | – | –
15 | H6-SUMO-tagged FePYR1 F178A (protein) MEQQPAAAEPEVPAGLGLTAAEYAELQPTVEAYHRYAVGPGQCSSLVAQRIEAPAAAVWAIVRRFDCPQVYKHFIRSCALRPDPDAGDELRPGRLREVSVISGLPASTSTERLDLLDDARRAFGFTITGGEHRLANYRSVTTVSELAPAAPAKICTVVLESYVVDVPEGNSEEDTRLAADTVVRLNLQKLKSLAEANATSAAAQATPPPQAE | – | – | 2500 | – | –
16 | H6-SUMO-tagged FePYR1 G103A (protein) MEQQPAAAEPEVPAGLGLTAAEYAELQPTVEAYHRYAVGPGQCSSLVAQRIEAPAAAVWAIVRRFDCPQVYKHFIRSCALRPDPDAGDELRPGRLREVSVISALPASTSTERLDLLDDARRAFGFTITGGEHRLANYRSVTTVSELAPAAPAKICTVVLESYVVDVPEGNSEEDTRLFADTVVRLNLQKLKSLAEANATSAAAQATPPPQAE | 700 | 1800 | 2800 | – | –
17 | H6-SUMO-tagged FePYR1 I75A (protein) MEQQPAAAEPEVPAGLGLTAAEYAELQPTVEAYHRYAVGPGQCSSLVAQRIEAPAAAVWAIVRRFDCPQVYKHFARSCALRPDPDAGDELRPGRLREVSVISGLPASTSTERLDLLDDARRAFGFTITGGEHRLANYRSVTTVSELAPAAPAKICTVVLESYVVDVPEGNSEEDTRLFADTVVRLNLQKLKSLAEANATSAAAQATPPPQAE | – | – | – | 9600 | 2600
18 | H6-SUMO-tagged FePYR1 V182L (protein) MEQQPAAAEPEVPAGLGLTAAEYAELQPTVEAYHRYAVGPGQCSSLVAQRIEAPAAAVWAIVRRFDCPQVYKHFIRSCALRPDPDAGDELRPGRLREVSVISGLPASTSTERLDLLDDARRAFGFTITGGEHRLANYRSVTTVSELAPAAPAKICTVVLESYVVDVPEGNSEEDTRLFADTLVRLNLQKLKSLAEANATSAAAQATPPPQAE | – | – | – | 3300 | 2000
19 | H6-SUMO-tagged FePYR1 L104A (protein) MEQQPAAAEPEVPAGLGLTAAEYAELQPTVEAYHRYAVGPGQCSSLVAQRIEAPAAAVWAIVRRFDCPQVYKHFIRSCALRPDPDAGDELRPGRLREVSVISGAPASTSTERLDLLDDARRAFGFTITGGEHRLANYRSVTTVSELAPAAPAKICTVVLESYVVDVPEGNSEEDTRLFADTVVRLNLQKLKSLAEANATSAAAQATPPPQAE | – | – | 2500 | – | –
